In patent US20190085033A1:

Columns and labels:
[1] = target: CD4 on human CD4+ T cells (human) (UniProt P01730); assay: flow cytometry, trimer labelled with two fluorescent probes on human CD4+ T cells, 30 mins
[2] = target: BG505-gp120 9MUTB (7MUT+N135R/Q328M) (HIV-1, strain BG505); assay: SPR, monomeric gp120
BG505 SOSIP T332N gp140 = assay: SPR; conditions: Fab

With “BG505 SOSIP T332N gp140 (other; other documents disagree on this pair)” the percentage of cells bound (double-positive population) [1] was 99.1%.
PGT121 (antibody) was tested, and the Kd [2] was 1.5 nM.
Substance PGT121 Fab has a Kd (BG505 SOSIP T332N gp140) of 26 nM.
